# Measured values published in US20260234234A1 (QILU PUGET SOUND BIOTHERAPEUTICS, published 2026).
# T1: hST2-Fc protein from R&D Systems (cat no. 523-ST-100) (human, UniProt Q01638 19-328, limits assumed)
# T1 construct: Bought reagent; also called human ST2
# T1 sequence (looked up): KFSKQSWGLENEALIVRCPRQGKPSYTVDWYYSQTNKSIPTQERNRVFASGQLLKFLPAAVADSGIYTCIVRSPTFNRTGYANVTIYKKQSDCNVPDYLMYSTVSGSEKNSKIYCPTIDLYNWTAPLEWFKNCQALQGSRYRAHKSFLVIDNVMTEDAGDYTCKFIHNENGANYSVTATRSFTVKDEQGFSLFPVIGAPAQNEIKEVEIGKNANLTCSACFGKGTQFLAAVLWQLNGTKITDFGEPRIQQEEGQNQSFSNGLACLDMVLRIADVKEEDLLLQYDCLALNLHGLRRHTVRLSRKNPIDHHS
# T2: His6-tagged cyIL-33 (Ser112-Ile270), QB10976 (cynomolgus monkey)
# T2 construct: Entry includes N-terminal Avitag, FLAG and His6 tags; isoform X1, NCBI XP_005581824; also called cyIL-33 antigen
# T2 chain: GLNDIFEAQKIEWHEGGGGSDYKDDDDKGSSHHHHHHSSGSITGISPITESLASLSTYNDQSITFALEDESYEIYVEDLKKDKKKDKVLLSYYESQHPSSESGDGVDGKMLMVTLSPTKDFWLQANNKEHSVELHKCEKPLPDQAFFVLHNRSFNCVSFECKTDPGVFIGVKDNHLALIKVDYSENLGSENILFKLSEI
# B1: Avitag_c-MYC_His6-tagged hIL-33 (Ser112-Thr270), QB10975 (ligand)
# chain: GLNDIFEAQKIEWHEGGGGSEQKLISEEDLGSSHHHHHHSSGSITGISPITEYLASLSTYNDQSITFALEDESYEIYVEDLKKDEKKDKVLLSYYESQHPSNESGDGVDGKMLMVTLSPTKDFWLHANNKEHSVELHKCEKPLPDQAFFVLHNMHSNCVSFECKTDPGVFIGVKDNHLALIKVDSSENLCTENILFKLSET
# notes: Entry includes N-terminal Avitag, c-MYC and His6 tags; reduced with DTT to the active form; also called active hIL-33; reduced hIL-33
# B2: anti-hIL-33 IgG1 antibody QB11421 (antibody)
# heavy: EVQLLESGGGLVQPGGSLRLSCAASGFTFYSSAMSWFRQTQGKGLEWVSTISSGGSNTYYPDSVKGRFTISRDNSKNTLYLQMNSLGAEDTAVYYCASAYYGRRYDAMDYWGQGTLVTVSSASTKGPSVFPLAPSSKSTSGGTAALGCLVKDYFPEPVTVSWNSGALTSGVHTFPAVLQSSGLYSLSSVVTVPSSSLGTQTYICNVNHKPSNTKVDKKVEPKSCDKTHTCPPCPAPEAAGGPSVFLFPPKPKDTLMISRTPEVTCVVVDVSHEDPEVKFNWYVDGVEVHNAKTKPREEQYNSTYRVVSVLTVLHQDWLNGKEYKCKVSNKALAAPIEKTISKAKGQPREPQVYTLPPSREEMTKNQVSLTCLVKGFYPSDIAVEWESNGQPENNYKTTPPVLDSDGSFFLYSKLTVDKSRWQQGNVFSCSVMHEALHNHYTQKSLSLSPGK
# light: DVVMTQSPPSLPVTLGQSASISCKSSESLLHSNANTYLYWFQQRPGQSPQLLIYRGSNLASGVPDRFSGSGSGTDFTLKISRVEAEDVGVYYCMQHLRNPYTFGQGTKVEIKRTVAAPSVFIFPPSDEQLKSGTASVVCLLNNFYPREAKVQWKVDNALQSGNSQESVTEQDSKDSTYSLSSTLTLSKADYEKHKVYACEVTHQGLSSPVTKSFNRGEC
# notes: IgG1 L234A, L235A, P329A; also called top clone as IgG1
# Assays:
# [1] = biological target: T1, hST2-Fc protein from R&D Systems (cat …); test: SPR, hST2-Fc immobilised on CM5, RU against hIL-33 concentration, 1 min association; 1 min association
# Protocol: (§1) Assessment was performed by SPR (Surface Plasmon Resonance) using Biacore 2000. The x-axis represents antibody concentration (nM), the y-axis represents the Response Units (RU) after correction by blank buffer.
# (§2) The binding capacity as Response Units (RU) was recorded.
# [2] = biological target: T1, hST2-Fc protein from R&D Systems (cat …); test: SPR, hST2-Fc immobilised on CM5, RU against hIL-33 concentration, 2 min association; 2 min association
# Protocol: as §1, §2
# [3] = biological target: B1; test: SPR
# Protocol: (§3) The kinetic binding data was obtained using SPR on a Biacore T200 equipment. […] The complex was allowed to associate for 3 min and dissociate for up to 1 hr. At the end of each cycle the CM4 chips were regenerated with 10 mM glycine pH1.5. The T200 Evaluation software V3.2 was used to align and double reference the data. The results were fit to a 1:1 binding model using the global data analysis option within the software.
# [4] = biological target: T2, His6-tagged cyIL-33 (Ser112-Ile270), …; test: SPR, cyIL-33 analyte
# Protocol: as §3
# [5] = biological target: B1; test: SPR, captured antibody, hIL-33 analyte, 37 C, 1:1 fit
# Protocol: (§4) The polyclonal goat-anti-human IgG (Fc specific) antibodies were immobilized on a CM4 chip surface using a standard amine coupling method. […] After each cycle, the chip was regenerated with 10 mM glycine-HCl, pH 1.5. The results were analyzed using Biacore T200 evaluation software V3.2. Results were double referenced and fit to a 1:1 interaction model.
# (§5) The kinetic binding data was obtained using SPR on a Biacore T200 equipment. […] The complex was allowed to associate for 3 min and dissociate for up to 1 hr. At the end of each cycle the CM4 chips were regenerated with 10 mM glycine pH1.5. The T200 Evaluation software V3.2 was used to align and double reference the data.
# [6] = biological target: T2, His6-tagged cyIL-33 (Ser112-Ile270), …; test: SPR, captured antibody, cyIL-33 analyte, 25 C, 1:1 fit
# Protocol: as §4, §5
Binder,EC50 [1] [nM],EC50 [2] [nM],fold increase of affinity against parental antibody QB11119 [3] [fold],fold improvement of affinity against parental antibody QB11119 [4] [fold],Kd [5] [nM],koff [5] [s⁻¹],kon [5] [M⁻¹ s⁻¹],Kd [6] [nM],koff [6] [s⁻¹],kon [6] [M⁻¹ s⁻¹]
B1,10.8,5.17,–,–,–,–,–,–,–,–
B2,–,–,~2,~3,0.207,0.000669,3.23e+06,4.89,0.00188,384000
